From patent US11542515B2, “Methods and compositions for increasing efficiency of targeted gene modification using oligonucleotide-mediated gene repair” (CIBUS US LLC, priority 2016, dated 2023)
d = 2'-deoxy (DNA); m = 2'-O-methyl

System: EPSPS 2-25 gene
Experiment: EPSPS precise edits by Cas9 RNP plus GRON in leaf protoplasts (deep sequencing)
Assay type: cell-based, Brassica napus
Conditions: with Cas9 protein complexed with BnEPSPS gRNA-1, three weeks, three independent experiments
Protocol: Brassica napus protoplasts derived from leaves of in vitro propagated nodal cuttings were seeded in a 50 ml centrifuge tube at 2,000,000 cells per tube and at a cell density of 5×10^6 cells/ml. CRISPR-Cas9 targeting the EPSPS 2-25 gene along with GRON was delivered as a ribonucleoprotein complex using the PEG method or by alternative delivery methods such as by electroporation, cell-penetrating peptides and/or lipid based delivery techniques. Protoplasts were incubated in the dark at 25° C. for three weeks, and then analyzed deep sequencing in order to determine the percentage of precise EPSPS edits and frequency of indels within a given treatment.
The CRISPR-Cas9 consists of two components: the Streptococcus pyogenes Cas9 (SpCas9) and sgRNA which form the RNP CRISPR-Cas9 complex when mixed. The sgRNA is a fusion of CRISPR RNA (crRNA) and trans-activating crRNA (tracrRNA). The crRNA region contains the spacer sequence used to guide the Cas9 nuclease to the EPSPS target gene. In these experiments RNP CRISPR-Cas9 is used to target the EPSPS 2-25 gene. The GRON contains the coding sequence of the EPSPS gene near the site of conversion as well as nucleotide alterations to produce the desired changes to the EPSPS gene.

B1: 2′OMe; BnEPSPS-2-25/NC 101-mer: 101-mer 2OMe GRON targeting Brassica napus EPSPS 2-25, SEQ ID NO: 336 (nucleic acid)
chain: UTACCTTGCGTTGCCACCTGCAGCAGTAACTGCAGCGGTAAGTGTACGCATCGCTATTCCAGCATTCCCAAGGTACAACTCGATATCACTCTTGGAATCTA
modifications: sugars from the 5' end m1 d100, backbone and methylation of C not given here
- gene editing in the targeted epsps gene(s): 0.07-0.125%
